Test results reported in US9163330B2, “Bifunctional stapled polypeptides and uses thereof” (President and Fellows of Harvard College, priority 2009, dated 2015).
Positions of bridges follow the written chain, without caps; N, C: chain ends. Non-standard residues stand in square brackets, D forms with d. No end group written: not given here. S5 = C=CCCC[C@](C)(N)C(=O)O; βAla = NCCC(=O)O

Test system: Hela cells
Assay: Confocal microscopy of Hela cells treated with FITC-conjugated SID-series peptides
Assay type: cell-based
Conditions: FITC-conjugated peptide, 10 μM, 6 hours, 37° C.
Protocol: HeLa cells were grown on chamber slides overnight. 10 mM FITC-SID peptides in DMSO stock solutions were diluted in cell media to a final concentration of 10 μM, along with a 10 μM DMSO control. Cells were incubated in peptide/vehicle solutions at 37° C. for 6 hours, then washed thoroughly with media and PBS, and fixed with 4% paraformaldehyde. Slides were stained with Vectashield™ Hardset with DAPI. Images were taken with a Zeiss 710 confocal microscope.

Substance | cellular penetration
βAla-VRRRI*MLL*AANYLER ([βAla]VRRRI[S5]MLL[S5]AANYLER; staple 7-11) [SID2] | robust cellular penetration
βAla-VRRRIQMLLEAANK*ERR*R ([βAla]VRRRIQMLLEAANK[S5]ERR[S5]R; staple 16-20) [SID5] | robust cellular penetration
